Measured values taken from patent publication US20240052059A1 (PUBLIC UNIVERSITY CORPORATION NARA MEDICAL UNIVERSITY, published 2024).

Target: FIX remaining in commercially-available FIX-deficient human plasma (trace amount) (human, UniProt P00740 47-461)
Test: cell-based or functional assay

Chain of FIX remaining in commercially-available FIX-deficient human plasma (trace amount) (P00740 47-461 limits assumed): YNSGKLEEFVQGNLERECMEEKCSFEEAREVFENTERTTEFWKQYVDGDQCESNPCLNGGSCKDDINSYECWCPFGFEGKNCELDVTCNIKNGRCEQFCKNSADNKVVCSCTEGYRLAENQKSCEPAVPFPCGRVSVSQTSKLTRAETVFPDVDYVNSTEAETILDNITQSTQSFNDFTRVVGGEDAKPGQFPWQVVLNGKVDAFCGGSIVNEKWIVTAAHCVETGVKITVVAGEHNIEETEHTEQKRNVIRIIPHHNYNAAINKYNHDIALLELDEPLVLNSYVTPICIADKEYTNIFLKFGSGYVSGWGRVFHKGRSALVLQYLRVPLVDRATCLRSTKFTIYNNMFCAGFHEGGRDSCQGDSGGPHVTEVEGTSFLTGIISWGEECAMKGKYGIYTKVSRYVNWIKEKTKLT

APTT shortening ratio with 100 ug/mL ACE910 in FIX-deficient human plasma without FIX formulation, after further addition of anti-FIX-Gla antibody (150 ug/mL): -3%
B1: ACE910 (Emicizumab), anti-FIXa/FX bispecific antibody (Q499-z121/J327-z119/L404-k) (bispecific antibody, human IgG4 S228P, kappa)
heavy 1: QVQLVESGGGLVQPGGSLRLSCAASGFTFSYYDIQWVRQAPGKGLEWVSSISPSGQSTYYRREVKGRFTISRDNSKNTLYLQMNSLRAEDTAVYYCARRTGREYGGGWYFDYWGQGTLVTVSSASTKGPSVFPLAPCSRSTSESTAALGCLVKDYFPEPVTVSWNSGALTSGVHTFPAVLQSSGLYSLSSVVTVPSSSLGTQTYTCNVDHKPSNTKVDKRVESKYGPPCPPCPAPEFLGGPSVFLFPPKPKDTLMISRTPEVTCVVVDVSQEDPEVQFNWYVDGVEVHNAKTKPREEQYNSTYRVVSVLTVLHQDWLNGKEYKCKVSNKGLPSSIEKTISKAKGQPREPQVYTLPPSQKEMTKNQVSLTCLVKGFYPSDIAVEWESNGQPENNYKTTPPVLDSDGSFFLYSKLTVDKSRWQEGNVFSCSVMHEALHNRYTQKSLSLSP
heavy 2: QVQLVQSGSELKKPGASVKVSCKASGYTFTDNNMDWVRQAPGQGLEWMGDINTRSGGSIYNEEFQDRVIMTVDKSTDTAYMELSSLRSEDTATYHCARRKSYGYYLDEWGEGTLVTVSSASTKGPSVFPLAPCSRSTSESTAALGCLVKDYFPEPVTVSWNSGALTSGVHTFPAVLQSSGLYSLSSVVTVPSSSLGTQTYTCNVDHKPSNTKVDKRVESKYGPPCPPCPAPEFLGGPSVFLFPPKPKDTLMISRTPEVTCVVVDVSQEDPEVQFNWYVDGVEVHNAKTKPREEQYNSTYRVVSVLTVLHQDWLNGKEYKCKVSNKGLPSSIEKTISKAKGQPREPQVYTLPPSQEEMTKNQVSLTCLVKGFYPSDIAVEWESNGQPENNYKTTPPVLDSDGSFFLYSKLTVDKSRWQEGNVFSCSVMHEALHNHYTQESLSLSP
light: DIQMTQSPSSLSASVGDRVTITCKASRNIERQLAWYQQKPGQAPELLIYQASRKESGVPDRFSGSRYGTDFTLTISSLQPEDIATYYCQQYSDPPLTFGGGTKVEIKRTVAAPSVFIFPPSDEQLKSGTASVVCLLNNFYPREAKVQWKVDNALQSGNSQESVTEQDSKDSTYSLSSTLTLSKADYEKHKVYACEVTHQGLSSPVTKSFNRGEC
